Results published in patent publication US20110287936.

Experiments:
Experiment in all cases: SPR
[1] = system: L7-1C03-A5 (EsR1) (Artificial Sequence); details: ka 4.7e4 M-1 s-1, kd 7.8e-3 s-1; operator sequence not given for SPR
[2] = target: L7-1F08-A11 (L7A11, EsR A11) (Artificial Sequence) (UniProt P04483); details: ka 7.1e4 M-1 s-1, kd 1.7e-2 s-1; operator sequence not given for SPR
[3] = system: L7-1G06-B2 (Artificial Sequence); details: ka 4.6e4 M-1 s-1, kd 1.9e-2 s-1; operator sequence not given for SPR
[4] = system: L7-3E03-D1 (EsR D01) (Artificial Sequence); details: ka 5.5e4 M-1 s-1, kd 1.1e-2 s-1; operator sequence not given for SPR
[5] = target: Wt TetR(B) (Tn10) (Escherichia coli) (UniProt P04483); details: ka 3.3e5 M-1 s-1, kd 3.0e-3 s-1; operator sequence not given for SPR

## tet operator used for SPR
[1]
  Kd: 150 nM
[2]
  Kd: 250 nM
[3]
  Kd: 430 nM
[4]
  Kd: 200 nM
[5]
  Kd: 9 nM
